Results from patent US20240325561A1 (Seagen, published 2024).

T1: CD19 (UniProt P15391 20-556, limits assumed)
T1 sequence (looked up): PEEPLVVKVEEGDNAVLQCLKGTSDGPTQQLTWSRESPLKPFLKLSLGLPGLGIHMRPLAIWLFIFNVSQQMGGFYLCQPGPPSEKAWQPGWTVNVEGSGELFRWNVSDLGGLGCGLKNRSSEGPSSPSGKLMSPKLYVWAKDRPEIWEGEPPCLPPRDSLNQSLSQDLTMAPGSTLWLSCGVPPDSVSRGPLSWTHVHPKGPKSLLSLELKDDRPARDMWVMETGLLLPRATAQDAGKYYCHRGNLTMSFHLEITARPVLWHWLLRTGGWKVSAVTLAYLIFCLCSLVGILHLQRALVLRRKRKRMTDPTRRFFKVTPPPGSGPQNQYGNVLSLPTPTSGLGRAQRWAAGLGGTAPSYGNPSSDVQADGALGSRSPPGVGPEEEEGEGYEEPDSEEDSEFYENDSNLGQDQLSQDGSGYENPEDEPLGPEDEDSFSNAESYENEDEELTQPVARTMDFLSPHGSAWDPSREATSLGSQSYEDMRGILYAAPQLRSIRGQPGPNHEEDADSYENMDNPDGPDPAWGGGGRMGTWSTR

B1: hBU12 32-load conjugate having the -X-D moiety of MDpr-PAB(gluc)-Camptothecin (antibody, V domains shown)
VH: QVQLQESGPGLVKPSQTLSLTCTVSGGSISTSGMGVGWIRQHPGKGLEWIGHIWWDDDKRYNPALKSRVTISVDTSKNQFSLKLSSVTAADTAVYYCARMELWSYYFDYWGQGTLVTVSS
VL: EIVLTQSPATLSLSPGERATLSCSASSSVSYMHWYQQKPGQAPRLLIYDTSKLASGIPARFSGSGSGTDFTLTISSLEPEDVAVYYCFQGSVYPFTFGQGTKLEIKR
modifications: antibody carries PEGylated multiplexed scaffold C with MDpr-PAB(gluc)-Camptothecin, 32 drugs per antibody
B2: hBU12-14 (antibody, V domains shown)
VH: B1 VH
VL: B1 VL
modifications: antibody carries drug-linker 14 (MDpr-glucuronide-MMAE, no PEG), 8 drugs per antibody
B3: hBU12-16 (antibody, V domains shown)
VH: B1 VH
VL: B1 VL
modifications: antibody carries drug-linker 16 (MDpr-Lys(PEG24)-glucuronide-MMAE), 8 drugs per antibody
B4: hBU12-42 (antibody, V domains shown)
VH: B1 VH
VL: B1 VL
modifications: antibody carries drug-linker 42 (MDpr-Lys(PEG4)-glucuronide-MMAE), 8 drugs per antibody
B5: hBU12-19 (antibody, V domains shown)
VH: B1 VH
VL: B1 VL
modifications: antibody carries drug-linker 19 (MDpr-Lys(PEG4[PEG4]3)-glucuronide-MMAE, branched PEG), 8 drugs per antibody
B6: hBU12-17 (antibody, V domains shown)
VH: B1 VH
VL: B1 VL
modifications: antibody carries drug-linker 17 (MDpr-Lys(PEG12)-glucuronide-MMAE), 8 drugs per antibody
B7: hBU12-43 (antibody, V domains shown)
VH: B1 VH
VL: B1 VL
modifications: antibody carries drug-linker 43 (MDpr-Lys(PEG2)-glucuronide-MMAE), 8 drugs per antibody
B8: hBU12-18 (antibody, V domains shown)
VH: B1 VH
VL: B1 VL
modifications: antibody carries drug-linker 18 (MDpr-Lys(PEG8)-glucuronide-MMAE), 8 drugs per antibody

These molecules were tested against T1, CD19 (assay: cell-based or functional assay).

Molecule | fold improvement in cytotoxicity against the 8-load conjugate, Raj cells | fold improvement in cytotoxicity against the 8-load conjugate, Ramos cells
B1 | > 5 fold | > 5 fold

Biological target: T1, CD19
Test: cell-based or functional assay
Remark: another data set of the same source

Molecule | IC50, in vitro cytotoxicity, RL cells | IC50, in vitro cytotoxicity, Ramos cells | IC50, in vitro cytotoxicity, SU-DHL-4 cells | IC50, in vitro cytotoxicity, WSU-DLCL-2 cells
B2 | 0.061 µg/mL | 0.002 µg/mL | 0.022 µg/mL | 0.005 µg/mL
B3 | > 1 µg/mL | 0.004 µg/mL | > 1 µg/mL | 0.003 µg/mL
B4 | > 1 µg/mL | 0.003 µg/mL | > 1 µg/mL | 0.005 µg/mL
B5 | > 1 µg/mL | 0.002 µg/mL | > 1 µg/mL | 0.247 µg/mL
B6 | > 1 µg/mL | 0.002 µg/mL | > 1 µg/mL | 0.129 µg/mL
B7 | 0.229 µg/mL | 0.002 µg/mL | > 1 µg/mL | 0.012 µg/mL
B8 | > 1 µg/mL | 0.002 µg/mL | 0.016 µg/mL | 0.211 µg/mL

The molecules below were run against transferrin receptor (UniProt P02786) (assay: cell-based or functional assay).
Sequence of transferrin receptor (P02786 whole entry): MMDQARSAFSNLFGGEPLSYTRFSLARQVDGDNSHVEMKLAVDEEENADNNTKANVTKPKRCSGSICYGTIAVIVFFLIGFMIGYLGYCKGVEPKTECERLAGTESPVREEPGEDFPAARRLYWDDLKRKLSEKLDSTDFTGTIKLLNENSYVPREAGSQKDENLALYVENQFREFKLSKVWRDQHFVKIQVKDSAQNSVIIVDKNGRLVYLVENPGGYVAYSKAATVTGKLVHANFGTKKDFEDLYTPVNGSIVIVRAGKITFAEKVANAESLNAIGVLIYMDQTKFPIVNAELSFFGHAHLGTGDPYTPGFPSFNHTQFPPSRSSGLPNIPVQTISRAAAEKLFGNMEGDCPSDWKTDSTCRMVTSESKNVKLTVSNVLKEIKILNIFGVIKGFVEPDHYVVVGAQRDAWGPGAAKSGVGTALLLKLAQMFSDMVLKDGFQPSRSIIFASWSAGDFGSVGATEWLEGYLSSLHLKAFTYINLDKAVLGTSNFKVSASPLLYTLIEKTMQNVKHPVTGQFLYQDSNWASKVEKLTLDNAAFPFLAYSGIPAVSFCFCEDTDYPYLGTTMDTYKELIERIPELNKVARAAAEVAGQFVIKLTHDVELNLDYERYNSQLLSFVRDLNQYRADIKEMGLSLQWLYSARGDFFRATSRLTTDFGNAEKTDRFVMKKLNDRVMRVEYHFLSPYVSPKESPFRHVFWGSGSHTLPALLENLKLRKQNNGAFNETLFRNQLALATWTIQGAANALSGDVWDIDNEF

Molecule | IC50, cytotoxicity, colorectal cell line HT-29 (TfR copy number 23K) | IC50, cytotoxicity, melanoma cell line SK-MEL-5 (TfR copy number 21K)
8-load anti-transferrin receptor ADC (cOKT9) having -X-D of MDpr-PABA(gluc)-Camptothecin (antibody) | > 1000 nM | > 1000 nM
